Article doi:10.1101/2021.07.22.453419 (2021)

Target: T1, Papain (E.C.3.4.22.2, from papaya latex) (papaya, UniProt P00784 134-345)
T1 chain: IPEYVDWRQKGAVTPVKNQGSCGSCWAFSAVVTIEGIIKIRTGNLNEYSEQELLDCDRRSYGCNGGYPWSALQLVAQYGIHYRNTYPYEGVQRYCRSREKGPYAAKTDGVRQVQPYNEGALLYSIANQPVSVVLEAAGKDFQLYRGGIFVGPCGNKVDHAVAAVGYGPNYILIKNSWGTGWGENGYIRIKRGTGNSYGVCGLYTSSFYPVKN

Ki: 0.0147 µM
B1: tomato cystatin SlCYS8 (natural protein)
chain: NPGGITNVPFPNLPQFKDLARFAVQDYNKKENAHLEFVENLNVKEQVVAGIIYYITLVATDAGKKKIYETKILVKGWENFKEVQEFKLVGDATK
